Laboratory results from PMC11929074, “An in vitro platform for the enzymatic characterization of the rhomboid protease RHBDL4” (The Journal of Biological Chemistry, 2025).
Entries after “also recorded” stand apart in the source; their conditions may differ. The star is where a group is joined. Dnp = O=[N+]([O-])c1ccc(*)c([N+](=O)[O-])c1; Mca = COc1ccc2c(CC(=O)*)cc(=O)oc2c1

What was measured:
[1] = molecular target: T1, recombinant human RHBDL4 (Homo sapiens, UniProt Q8TEB9); experiment: FRET-based cleavage assay with fluorescent (IQ / KSp207) substrates; type: biochemical; conditions: for kcat: average ± S.E.M.; for RHBDL4-catalyzed activity towards GlpG/PARL model substrates: in vitro cleavage assay
T1 construct: The entire RHBDL4 and RHBDL4-S144A cDNAs were subcloned into the pcDNA3.1 vector; 6xHis (C, cleaved yes); made in house; host or cells: Freestyle 293-F cells (transient transfection, pcDNA3.1-HisA)
T1 sequence (Q8TEB9 1-315): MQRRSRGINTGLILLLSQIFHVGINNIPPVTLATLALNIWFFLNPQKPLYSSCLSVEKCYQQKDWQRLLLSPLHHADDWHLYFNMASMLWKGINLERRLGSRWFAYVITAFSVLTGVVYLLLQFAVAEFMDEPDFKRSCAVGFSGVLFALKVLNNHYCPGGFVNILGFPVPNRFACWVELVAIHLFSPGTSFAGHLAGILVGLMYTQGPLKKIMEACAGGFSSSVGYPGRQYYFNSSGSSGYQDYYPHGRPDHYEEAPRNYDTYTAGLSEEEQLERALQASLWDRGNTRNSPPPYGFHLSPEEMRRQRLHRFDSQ
Procedure: Figure 2 Kinetic characterization of recombinant human RHBDL4.A, schematic representation of the FRET-based cleavage assay using internally quenched (IQ) substrates. B, saturation curves of RHBDL4 using the fluorescent IQ substrates, IQ6, IQ41, and IQ46. C, pH dependence of the RHBDL4 protease activity using substrates IQ6, IQ41, and IQ46. D, salt concentration dependence of the RHBDL4 protease activity using substrates IQ6, IQ41, and IQ46. All the assays were performed in triplicate, and data points are represented by the average ± S.E.M. TEXT PRINTED IN THE PICTURE: (B) IQ 6: KM(μM) 10.73±2; Kcat(hr^-1) 7.33±0.6 | (B) IQ 41: KM(μM) 5.63±2; Kcat(hr^-1) 2.41±0.6 | (B) IQ 46: KM(μM) 7.19±1; Kcat(hr^-1) 3.62±0.8
(§1) The reaction setup in our FRET assay enabled the direct determination of Michaelis–Menten kinetic parameters Km and kcat for the cleavage of IQ6, IQ41, and IQ46 by RHBDL4. Our fluorescence reading data were converted to μM/h using the standard calibration curve for all three IQ substrates, and the correction factor for the inner filter effect was applied. We confirmed that purified RHBDL4 followed Michaelis–Menten kinetics with KmIQ6=10.73±2μΜ , KmIQ41=5.63±2μΜ , and KmIQ46=7.19±1μΜ and kcatIQ6=7.33±0.6h^−1 , kcatIQ41=2.41±0.6h^−1 , and kcatIQ46=3.62±0.08h^−1 (Figs. 2B and S2B).
Our FRET-based assay is a suitable platform for optimizing conditions that enhance RHBDL4 protease activity. To this end, we selected the optimal pH for RHBDL4 protease activity and performed FRET-based assays with IQ6, IQ41, and IQ46 at a pH range of 5 to 10. […] The optimal salt concentration for the RHBDL4 protease activity was also tested in the range of 100 to 300 mM (Fig. 2D). We conclude that with the IQ6, IQ41, and IQ46 substrates, RHBDL4 had satisfactory activity in a salt concentration range of 100 to 300 mM.
Figure 5 In vitro inhibition of RHBDL4 activity with TMED7-derived peptidyl α-ketoamides.A, schematic representation of the peptidyl-α-ketoamide inhibitor, compound 3 and 4. B, representative inhibition curve derived from measuring rates of RHBDL4 proteolysis of the fluorescent substrate IQ6 with increasing concentrations of compound 3. C, same as (B), except inhibition curve was derived from using increasing concentrations of compound 4. […] Reactions were quenched with 1 RLaemmli buffer and loaded on 12% SDS-PAGE gel. Post-transfer membranes were visualized using a fluorescence Cy3 filter and by Western blotting using an α-His antibody. E, saturation curve of RHBDL4 using fluorescent substrate, KSp207. For (B and C), all inhibitors were pre-incubated with RHBDL4 for 1 h and allowed to react with the IQ6 substrate for 2 h. […]
(§2) The enzymatic assay was performed as previously described (Arutyunova et al., 2014, ([26])). […] The FRET-based cleavage assay was conducted in a fluorescence multiwell plate reader (SynergyMx, BioTek). Upon excitation at 320 nm, the emission intensity at 400 nm was recorded for 2 h at minimal intervals under shaking conditions and plotted using the GraphPad PRISM software. The initial velocities were defined as the slopes of the curve of the generated product as a function of time. The plots of the generated product against the corresponding substrate concentration were fitted with the Michaelis–Menten equation. Catalytic parameters were extrapolated using GraphPad PRISM. […] The samples were desalted using C18 tips (Rainin), eluted in 80% acetonitrile, and dried down in a vacuum centrifuge prior to mass spectrometry analysis.
All the calculations for Km, Vmax, and Kcat for RHBDL4 and its mutants were performed using GraphPad PRISM.

[2] = system: RHBDL4-AR; experiment: FRET-based cleavage of IQ6 by RHBDL4-AR mutant (WR motif); type: biochemical, human; conditions: IQ6 substrate; n = 3
Excerpt: (§3) All mutants had robust expression on day 3 post-transfection of Freestyle 293-F cells, when cells were harvested for purification. RHBDL4 contains two motifs that are well conserved among the rhomboid superfamily, the WR motif in L1 and the Gx3G motif in TM domain 6 (Fig. S3, A and B) ([8]). Both motifs are required for RHBDL4-mediated ERAD function (Fleig et al. 2012). We predicted that both AR and Ax3G mutants would result in lower RHBDL4 activity. To that end, RHBDL4-AR and RHBDL4-Ax3G were expressed and purified using affinity Ni-NTA column followed by SEC (Fig. 3, B and C). […]
(§4) Figure 3 Dependence of conserved rhomboid motifs on RHBDL4 protease activity.A, RHBDL4 representation highlighting TM1–6 (in green), the VBM- and UIM-binding motifs (in blue), the conserved rhomboid motifs (WR and Gx3G), and the serine-histidine catalytic dyad (in pink). […] D, activity profiles of the WT RHBDL4 and mutant RHBDL4-S144A, RHBDL4-AR, and RHBDL4-Ax3G proteins, as measured by cleavage of the fluorescent substrate IQ6. […]
(§5) The enzymatic assay was performed as previously described (Arutyunova et al., 2014, ([26])). […] The FRET-based cleavage assay was conducted in a fluorescence multiwell plate reader (SynergyMx, BioTek). Upon excitation at 320 nm, the emission intensity at 400 nm was recorded for 2 h at minimal intervals under shaking conditions and plotted using the GraphPad PRISM software. […]

[3] = system: RHBDL4-Ax3G; experiment: FRET-based cleavage of IQ6 by RHBDL4-Ax3G mutant; type: biochemical, human; conditions: IQ6 substrate; n = 3
Excerpt: as §3, §4, §5

[4] = system: RHBDL4-S144A; experiment: FRET-based cleavage by inactive RHBDL4-S144A; type: biochemical, human; conditions: pH 8, 37 °C
Excerpt: as §1
Figure 3 Dependence of conserved rhomboid motifs on RHBDL4 protease activity.A, RHBDL4 representation highlighting TM1–6 (in green), the VBM- and UIM-binding motifs (in blue), the conserved rhomboid motifs (WR and Gx3G), and the serine-histidine catalytic dyad (in pink). The table indicates the RHBDL4 region, the conserved rhomboid motifs, and amino acid mutation. The RHBDL4 proteolytic activity. B, size-exclusion chromatography profile of RHBDL4-AR and RHBDL4-Ax3G, being eluted as a monomeric protein. C, coomassie staining and Western blotting using an α-His antibody of concentrated purified RHBDL4-AR and RHBDL4-Ax3G. D, activity profiles of the WT RHBDL4 and mutant RHBDL4-S144A, RHBDL4-AR, and RHBDL4-Ax3G proteins, as measured by cleavage of the fluorescent substrate IQ6. Assay was performed in triplicate (n = 3), and data points are represented by the average ± S.E.M. Statistically significant differences compared to WT RHBDL4 are indicated (pairwise Dunnett's test followed by Bonferroni's post hoc analysis; ∗p < 0.05, n.s., no significance).
as §5

[5] = molecular target: T1, recombinant human RHBDL4; experiment: Mass spectrometry identification of cleavage sites in IQ6; type: biochemical; conditions: 1.5 μM RHBDL4, 10 μM IQ6, 4 h, room temperature, quenched with 8 M GuHCl; MS/MS
Procedure: as §2
Supplemental Information 4. […] (B) Depiction of IQ6 cleavage sites as determined from tandem mass spectrometry (MS/MS). (C) Peptide sequence of GlpG-derived and PARL-derived fluorescent substrates IQ4 and IQ15, respectively. (D) Activity profiles of the wild-type RHBDL4 and mutant RHBDL4-S144A, as measured by cleavage of the fluorescent substrates IQ4 and IQ15. Assays was performed in triplicate, and data points are represented by the average ± S.E.M.

[6] = system: mammalian rhomboid protease PARL; conditions: ref [26], [27]; cited from earlier work
[7] = system: bacterial rhomboid protease GlpG; conditions: ref [26], [27]; cited from earlier work

Substance | kcat ([1]; 37 °C, pH 8.0, triplicate) [s⁻¹] | cleavage rate/efficiency relative to other substrates ([1]; FRET-based assay) | faster kinetics in comparison to IQ41 ([1]; IQ6 versus IQ41) | faster kinetics in comparison to IQ46 ([1]; IQ6 versus IQ46) | kcat ([1]; Michaelis-Menten, 1.5 μM RHBDL4, 37 °C, 2 h, pH 8.0, 150 mM NaCl, 0.1% DDM, triplicate) [s⁻¹] | catalytic rate (cleavage rate) ([1]; approximate, discussion) | pH of highest RHBDL4 protease activity ([1]; pH range 5 to 10, triplicate) | salt concentration range with satisfactory activity ([1]; salt tested 100 to 300 mM, triplicate) [mM] | decrease in activity compared with WT RHBDL4 [2] [fold] | enzymatic cleavage activity compared with WT RHBDL4 [3] | cleavage by inactive RHBDL4-S144A (increase in fluorescence / activity) [4] | N-terminal cleavage products [5] | RHBDL4-catalyzed activity towards GlpG/PARL model substrates ([1]; triplicate) | cleavage by PARL [6] | cleavage by GlpG [7]
Mca-Arg-Pro-Pro-Gly-Phe-Ser-Ala-Phe-Lys (DNP)-OH (Mca-RPPGFSAFK(Dnp)-OH; SMILES COc1ccc2c(CC(=O)N[C@@H](CCCNC(=N)N)C(=O)N3CCC[C@H]3C(=O)N3CCC[C@H]3C(=O)NCC(=O)N[C@@H](Cc3ccccc3)C(=O)N[C@@H](CO)C(=O)N[C@@H](C)C(=O)N[C@@H](Cc3ccccc3)C(=O)N[C@@H](CCCCNc3ccc([N+](=O)[O-])cc3[N+](=O)[O-])C(=O)O)cc(=O)oc2c1) [IQ6, fluorescent internally quenched substrate mca-…(dnp)] | 0.00204 ± 0.00017 | exhibited the highest cleavage rate for RHBDL4 proteolysis; also recorded: maximum activity | three-fold | two-fold | 0.00204 ± 0.00017 | approximately 7 /h | 8 | 100 to 300 | ~6 | retained enzymatic cleavage activity at levels comparable to WT RHBDL4 | negligible increase in fluorescence; also recorded: negligible activity | mca-RPPGFSA and mca-RPPGFS | – | – | –
mca-AVFLSAVAG(dnp) [IQ15, PGAM-derived PARL model substrate mca-…(dnp)] | – | – | – | – | – | – | – | – | – | – | – | – | did not observe any RHBDL4-catalyzed activity | cleave | –
mca-RPKPYAvWMK(dnp) [IQ4, GlpG model substrate mca-RPKPYAvWMK(dnp)] | – | – | – | – | – | – | – | – | – | – | – | – | did not observe any RHBDL4-catalyzed activity | – | cleave
